According to the RNAGym collection of RNA variant scans (doi:10.7554/elife.80360):

B1: Twister Ribozyme (parent)
chain: AACACUGCCAAUGCCGGUCCCAAGCCCGGAUAAAAGUGGAGGGGGCGG

Variants of: B1
Test: self-cleavage, relative activity (ratio to wild type); higher = more cleavage; co-transcriptional

Variant | self-cleavage
AACACUGCCAAUGCCAGUCCUAAGCCCGGAUAAAAGUGGAGGGGGCGG [G16A C21U] | 0.0697
AACACUGCCAAUGCCAGUCCGAAGCCCGGAUAAAAGUGGAGGGGGCGG [G16A C21G] | 0.0789
AACACUGCCAAUGCCCGUCCCCAGCCCGGAUAAAAGUGGAGGGGGCGG [G16C A22C] | 0.198
AACACUGCCAAUGCCCGUCCCGAGCCCGGAUAAAAGUGGAGGGGGCGG [G16C A22G] | 0.0711
AACACUGCCAAUGCCAGUCCCAAGCCCGGAUAAAAGUGGAGGGGGCGA [G16A G48A] | 0.979
AACACUGCCAAUGCCAGUCCCAAGCCCGGAUAAAAGUGGAGGGGGCGC [G16A G48C] | 1.08
AACACUGCCAAUGCCAGUCCCAAGCCCGGAUAAAAGUGGAGGGGGCGU [G16A G48U] | 0.917
AACACUGCCAAUGCCAGUCCCAAGCCCGGAAAAAAGUGGAGGGGGCGG [G16A U31A] | 0.958
AACACUGCCAAUGCCAGUCCCAAGCCCGGACAAAAGUGGAGGGGGCGG [G16A U31C] | 0.816
AACACUGCCAAUGCUGGUCCCAAGCCCGGAUAAAAGUGGAGGGGCCGG [C15U G45C] | 0.64
AACACUGCCAAUGCUGGUCCCAAGCCCGGAUAAAAGUGGAGGGGUCGG [C15U G45U] | 0.817
AACACUGCCAAUGCUGGUCCCAAGCCCGGAUAAAAGUGGAGGGGACGG [C15U G45A] | 0.924
AACACUGCCAAUGCUGGUCCCAAGGCCGGAUAAAAGUGGAGGGGGCGG [C15U C25G] | 0.414
AACACUGCCAAUGCUGGUCCCAAGCCCGGAUAAAAGUGGAGGUGGCGG [C15U G43U] | 0.277
AACACUGCCAAUGCCAGUCCCAAGCCCGGAUAAAAGUGGAGGGGGCGG [G16A] | 1.03
AACACUGCCAAUGCCCGUCCCAAGCCCGGAUAAAAGUGGAGGGGGCGG [G16C] | 0.663
AACACUGCCAAUGCCCGUCCCAAGCCCGGAUUAAAGUGGAGGGGGCGG [G16C A32U] | 0.456
AACACUGCCAAUGCCCGUCCCAAGCCCGGAUCAAAGUGGAGGGGGCGG [G16C A32C] | 0.536
AACACUGCCAAUGCCCGUCCCAAGCCCGGAUGAAAGUGGAGGGGGCGG [G16C A32G] | 0.518
AACACUGCCAAUGCUGGUCCCAAACCCGGAUAAAAGUGGAGGGGGCGG [C15U G24A] | 0.1
AACACUGCCAAUGCUGGUCCCAACCCCGGAUAAAAGUGGAGGGGGCGG [C15U G24C] | 0.115
AACACUGCCAAUGCCAGUCCCAAGCCCGAAUAAAAGUGGAGGGGGCGG [G16A G29A] | 0.639
AACACUGCCAAUGCUGGUCCCAAGCCCAGAUAAAAGUGGAGGGGGCGG [C15U G28A] | 1.14
AACACUGCCAAUGCUGGUCCCAAGCCCUGAUAAAAGUGGAGGGGGCGG [C15U G28U] | 0.973
AACACUGCCAAUGCCAGUCCCAAGCCCGGAUAAAAAUGGAGGGGGCGG [G16A G36A] | 0.409
AACACUGCCAAUGCCAGUCCCAAGCCCGGAUAAAAGUGGAGGGGGCUG [G16A G47U] | 0.487
AACACUGCCAAUGCUGGUCCCAAGCCCGGAUAAAUGUGGAGGGGGCGG [C15U A35U] | 0.915

Variant | self-cleavage
AACACUGCCAAUGCUGGUCCCAAGCCCGGAUAAAGGUGGAGGGGGCGG [C15U A35G] | 0.659
AACACUGCCAAUGCCAGUCCCAGGCCCGGAUAAAAGUGGAGGGGGCGG [G16A A23G] | 0.161
AACACUGCCAAUGCCAGUCCCACGCCCGGAUAAAAGUGGAGGGGGCGG [G16A A23C] | 0.137
AACACUGCCAAUGCUGGUCCGAAGCCCGGAUAAAAGUGGAGGGGGCGG [C15U C21G] | 0.0408
AACACUGCCAAUGCUGGUCCCAAGCCCGGAUAAAAGUGAAGGGGGCGG [C15U G39A] | 0.314
AACACUGCCAAUGCUGGUCCCAAGCCCGGAUAAAAGUGCAGGGGGCGG [C15U G39C] | 0.146
AACACUGCCAAUGCCAGUCCCAAGCCCGGAUAAAAGUGGAGGGGGAGG [G16A C46A] | 0.994
AACACUGCCAAUGCCAGUCCCAAGCCCGGAUAAAAGUGGAGGGGGUGG [G16A C46U] | 0.895
AACACUGCCAAUGCCAGUCCCAAGUCCGGAUAAAAGUGGAGGGGGCGG [G16A C25U] | 0.852
AACACUGCCAAUGCUGGUCCCAAGCACGGAUAAAAGUGGAGGGGGCGG [C15U C26A] | 0.126
AACACUGCCAAUGCCAGUGCCAAGCCCGGAUAAAAGUGGAGGGGGCGG [G16A C19G] | 0.172
AACACUGCCAAUGCUGGUCCCAAGCCCGGAUAAAAAUGGAGGGGGCGG [C15U G36A] | 0.454
AACACUGCCAAUGCUGGUCCCAAGCCCGGAUAAAAUUGGAGGGGGCGG [C15U G36U] | 0.203
AACACUGCCAAUGCUGGUCCCAAGCCCGGAUAAUAGUGGAGGGGGCGG [C15U A34U] | 0.68
AACACUGCCAAUGCCAGUCGCAAGCCCGGAUAAAAGUGGAGGGGGCGG [G16A C20G] | 0.158
AACACUGCCAAUGCUGGUCCCAAGCCCGGACAAAAGUGGAGGGGGCGG [C15U U31C] | 0.923
AACACUGCCAAUGCUGGUCCCAAGCCCGGAGAAAAGUGGAGGGGGCGG [C15U U31G] | 0.782
AACACUGCCAAUGCCAGUCCCAAGCCCAGAUAAAAGUGGAGGGGGCGG [G16A G28A] | 0.48
AACACUGCCAAUGCCAGUCCCAAGCCCCGAUAAAAGUGGAGGGGGCGG [G16A G28C] | 0.489
AACACUGCCAAUGCUGGUCCCAAGCCCGAAUAAAAGUGGAGGGGGCGG [C15U G29A] | 0.927
AACACUGCCAAUGCUGGUCCCAAGCCCGCAUAAAAGUGGAGGGGGCGG [C15U G29C] | 0.194
AACACUGCCAAUGCUGGUCCCAAGCCCGUAUAAAAGUGGAGGGGGCGG [C15U G29U] | 0.652
AACACUGCCAAUGCCAGUCCCAAGCCCGGUUAAAAGUGGAGGGGGCGG [G16A A30U] | 1.04
AACACUGCCAAUGCCCGUCCCAAGCCCGGGUAAAAGUGGAGGGGGCGG [G16C A30G] | 0.31
AACACUGCCAAUGCCCGUCCCAAGCCCGGUUAAAAGUGGAGGGGGCGG [G16C A30U] | 0.741
AACACUGCCAAUGCUGGUCCCAAGCCCGGAUAAAAGUGGACGGGGCGG [C15U G41C] | 0.209
AACACUGCCAAUGCUGAUCCCAAGCCCGGAUAAAAGUGGAGGGGGCGG [C15U G17A] | 0.204
